T1: ovalbumin (UniProt P01012 2-386)
T1 sequence (looked up): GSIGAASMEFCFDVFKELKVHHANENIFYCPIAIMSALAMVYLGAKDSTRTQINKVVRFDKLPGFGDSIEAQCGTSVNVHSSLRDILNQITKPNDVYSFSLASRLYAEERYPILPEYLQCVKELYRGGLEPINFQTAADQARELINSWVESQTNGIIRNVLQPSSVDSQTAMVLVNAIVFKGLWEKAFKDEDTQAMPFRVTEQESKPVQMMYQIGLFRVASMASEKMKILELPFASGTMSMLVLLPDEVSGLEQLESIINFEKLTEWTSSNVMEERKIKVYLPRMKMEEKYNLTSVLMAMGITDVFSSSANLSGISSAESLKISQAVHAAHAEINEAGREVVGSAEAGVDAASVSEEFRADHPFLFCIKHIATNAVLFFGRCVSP

B1: 2G12 domain exchanged Fab fragment displayed on phage, expressed from the 2G12 pCAL G13 vector (SEQ ID NO: 11) (Fab, not shown: small tags and cut ends; large carriers)
heavy 1: EVQLVESGGGLVKAGGSLILSCGVSNFRISAHTMNWVRRVPGGGLEWVASISTSSTYRDYADAVKGRFTVSRDDLEDFVYLQMHKMRVEDTAIYYCARKGSDRLSDNDPFDAWGPGTVVTVSPASTKGPSVFPLAPSSKSTSGGTAALGCLVKDYFPEPVTVSWNSGALTSGVHTFPAVLQSSGLYSLSSVVTVPSSSLGTQTYICNVNHKPSNTKVDKKVEPKSCLRYPYDVPDYA
heavy 2: B1 heavy 1
light: AGVVMTQSPSTLSASVGDTITITCRASQSIETWLAWYQQKPGKAPKLLIYKASTLKTGVPSRFSGSGSGTEFTLTISGLQFDDFATYHCQHYAGYSATFGQGTRVEIKRTVAAPSVFIFPPSDEQLKSGTASVVCLLNNFYPREAKVQWKVDNALQSGNSQESVTEQDSKDSTYSLSSTLTLSKADYEKHKVYACEVTHQGLSSPVTKSFNRGEC
notes: also called 2G12 Fab; 2G12 alone
B2: 2G12 domain exchanged Fab fragment displayed on phage, expressed from the 2G12 pCAL A1 vector (SEQ ID NO: 217) (Fab)
heavy 1: EVQLVESGGGLVKAGGSLILSCGVSNFRISAHTMNWVRRVPGGGLEWVASISTSSTYRDYADAVKGRFTVSRDDLEDFVYLQMHKMRVEDTAIYYCARKGSDRLSDNDPFDAWGPGTVVTVSPASTKGPSVFPLAPSSKSTSGGTAALGCLVKDYFPEPVTVSWNSGALTSGVHTFPAVLQSSGLYSLSSVVTVPSSSLGTQTYICNVNHKPSNTKVDKKVEPKSCLR
heavy 2: B2 heavy 1
light: B1 light

Target: T1, ovalbumin
Test: phage ELISA, anti-HA or anti-M13 detection

Binder | binding result
B1 | no binding
B2 | no binding
